Measured values published in US12098378B2, “Anti-fungal polypeptides” (priority 2020, dated 2024).

Experiments:
Botrytis cinerea [1] = assay: Control of Botrytis cinerea on strawberry, at harvest and postharvest; assay type: in vivo
Method: (§1) Four replicates of 20 strawberry plants ([…] per plot) were treated with 0.576 or 0.72 l of spray solution, corresponding with a spray volume of […], according to local practice. The spray mix contained a concentration of active ingredient as described in Table 7. Six applications were performed spaced 7 days apart. No artificial infection was performed and first spray was placed at the onset of flowering. The efficacy of 10G11 was compared to that of a non-treated control and the chemical reference Teldor (Fenhexamid). In addition, a chemical rotation of Switch (Cyprodinil+Fludioxonil), Teldor (Fenhexamid) and Scala (Pyrimethanil) was evaluated. A seventh treatment replaced part of the chemicals in this chemical rotation by 10G11 as described in Table 7.
Efficacy assessments were performed on fruits at harvest and the number and weight of healthy and diseased fruits was evaluated. Per plot, 50 healthy fruits were then placed into cold storage (2° C.) for two days, after which the postharvest assessment continued for 5 more days at ambient temperature ([…]). Botrytis incidence and severity on stored fruits was assessed at 0, 2 and 5 days at ambient storage.

Fraction 3 = assay: Bio-layer interferometry (BLI) binding; design: species or system Botrytis cinerea; details: compared to a reference VHH (FIG. 12)
Excerpt: 10G11 binding to Fraction 3 was further confirmed by bio-layer interferometry (BLI). BLI is a label-free optical analytical technique for measuring biomolecular interactions (Kamat et al, 2017. Analytical biochemistry 536: 16-31; Wallner et al. 2013. Journal of Pharmaceutical and Biomedical Analysis 72: 150-154).

Podosphaera aphanis = assay: Control of powdery mildew on strawberry in greenhouse; assay type: in vivo; details: 250, 500, 750 g ai/ha, 6 applications
Method: as §1, with “6.” for “7.”, “before first symptoms appeared.” for “at the onset of flowering.”, “Topas 2.5 WG (Penconazole).” for “Teldor (Fenhexamid).”, “Ganzo (Myclobutanil), Topas 2.5 WG (Penconazole)” for “Switch (Cyprodinil+Fludioxonil), Teldor (Fenhexamid)”, “Signum (Boscalid+Pyraclostrobin)” for “Scala (Pyrimethanil)”
Efficacy assessments were performed on 20 leaves per plot, assessing the percentage of leaf area affected (PESSEV) and the percentage of leaves affected (PESINC) on the whole plot. Assessments were performed on a weekly basis and continued until 2 weeks after the last application.

Uncinula necator = assay: Control of powdery mildew on grapevine in field; assay type: in vivo; details: 250, 500, 750 g ai/ha, 8 applications, until four weeks after application
Method: Four replicates of 10 vines (25 m^2 per plot) were treated with 8 or 10 l of spray solution, corresponding with a spray volume of […], according to local practice and growth stage of the vines. The spray mix contained a concentration of active ingredient as described in Table 4. Eight applications were performed, spaced on average 10 days apart. No artificial infection was performed and first spray was at pre-bloom stage, before first powdery mildew symptoms. The efficacy 10G11 was compared to that of a non-treated control and the chemical reference Topas 10 EC (Penconazole). In addition, a chemical rotation of Tiovit Jet (sulphur), Vivando (Metrafenon), Sercadis (Fluxapyroxad), Prosper 500 EC (Spiroxamine) and Karathane Star (Meptyldinocap) was evaluated. A seventh treatment replaced part of the chemicals in this chemical rotation by 10G11 as described in Table 4.
Efficacy assessments were performed on leaves by evaluating the percentage of leaf area affected on 100 leaves randomly selected from the same position on the shoot. In addition, powdery mildew infection on fruits was assessed as the percentage of infected area of 50 randomly selected bunches per plot. Assessments continued until 4 weeks after the last application.

Phakopsora pachyrhizi = assay: Control of soybean rust on soybeans in glasshouse; assay type: in vivo
Method: Four replicates of pot-grown soybean plants (4 plants/pot) were sprayed with 125 ml aqueous suspension, containing a concentration of active ingredient of as described in Table 1. Two applications were done spaced 14 days apart. Plants were inoculated once with Phakopsora pachyrhizi two days after the first application (application A) of active ingredient. The growth inhibitory characteristics of 10G11Q were compared to those of a non-antifungal reference VHH molecule, a non-treated control and the systemic chemical Quadris Top SBX (azoxystrobin, difeconazole).
Disease severity is recorded as percent severity on a scale of 0-100%. Recording started when first symptoms appear followed by weekly assessment at least till 3 weeks after the second application (application B) of the active ingredient. Percent severity ratings are separated based on the position on the plant: Percent severity low canopy, Percent severity mid canopy and Percent severity upper canopy to track the progress of the disease well and following the natural development of the disease in nature.
Time indications in the graphs on the x-axis concern the time of recording of disease severity or incidence. These are relative and are indicated by the number of days after application when recording occurred. For example, a recording 13 Days After the second application (application B) will be represented as 13DAB. This code is applicable for FIG. 15 to FIG. 28.

Botrytis cinerea [2] = assay: Control of Botrytis cinerea on grapevine in field; assay type: in vivo; details: 250, 500, 750 g ai/ha, 4 applications; until 20 days after the last application (FIG. 19)
Method: Four replicates of 10 vines (33.6 m^2 per plot) were treated with 8 l of spray solution, corresponding with a spray volume of […], according to local practice. The spray mix contained a concentration of active ingredient as described in Table 3. Four applications were done at specific phenological development stages of the vines: BBCH 77, BBCH 79, BBCH 81 and BBCH 85 (according to the standardised BBCH-scale). No artificial infection was performed, and first spray was placed preventative, based on forecasted disease pressure. The efficacy of 10G11 was compared to that of a non-treated control and the chemical reference Teldor (Fenhexamid). In addition, a chemical rotation of Switch (Fludioxonil+cyprodinil) and Teldor and a rotation of Switch and 10G11 was tested.
Disease severity is recorded as percent severity on a scale of 0-100% (PESSEV). Recording started when first symptoms appeared, just prior to the fourth application. Additional assessments were performed 13 and 20 days after the last application. At each assessment, the percentage of grape bunch surface affected by the disease was estimated on 100 randomly selected bunches per plot.

B1: 10G11: VHH polypeptide, SEQ ID NO: 2, begins with a D residue (protein)
VHH: DVQLVESGGGLVQAGGSLRLSCAASRSIFSINAMDWYRQAPGKQREWVAGITRGGTTKYADSVKGRFTISRDNAKKKVYLQMNSLKPEDTAVYYCNVLRGEQPWTRDYWGQGTQVTVSS
With B1 the “Botrytis infected strawberry fruits at harvest” value (Botrytis cinerea [1]; 250, 500, 750 g ai/ha, 6 applications in the field during flowering (FIG. 26)) was “reduced incidence of Botrytis at harvest”, the “Botrytis severity on strawberry fruits in postharvest” value (Botrytis cinerea [1]; stored fruits, 2 days at 2° C. then 0, 2 and 5 days at ambient storage (FIG. 27)) was “dose-related reduction of Botrytis severity on stored fruits” and the “binding to Fraction 3 by BLI” value (Fraction 3) was “confirmed binding”. For the same molecule, the “severity (PESSEV) of powdery mildew on strawberry” value (Podosphaera aphanis; until two weeks after the last application (FIG. 24)) was “clear and dose-related performance”, the “incidence (PESINC) of powdery mildew on strawberry” value (Podosphaera aphanis; until two weeks after the last application (FIG. 25)) was “clear and dose-related performance” and the “severity of powdery mildew on grape leaves (percentage of leaf area affected)” value (Uncinula necator; very high disease pressure (FIG. 20)) was “clear and dose-related performance”. The “severity of powdery mildew on grape bunches (percentage of infected area)” value (Uncinula necator; very high disease pressure (FIG. 21)) was “clear and dose-related performance”, the “percent severity of Asian soybean rust, lower canopy” value (Phakopsora pachyrhizi; 250, 500, 750 g ai/ha, 2 applications, until 3 weeks after the second application, vs reference VHH and non-treated inoculated control (FIG. 15)) was “prominent and dose-related growth inhibition pattern” and the “percent severity of Asian soybean rust, mid canopy” value (Phakopsora pachyrhizi; 250, 500, 750 g ai/ha, 2 applications, until 3 weeks after the second application, vs reference VHH and non-treated inoculated control (FIG. 16)) was “prominent and dose-related growth inhibition pattern”. For the same molecule, the “percent severity of Asian soybean rust, upper canopy” value (Phakopsora pachyrhizi; 250, 500, 750 g ai/ha, 2 applications, until 3 weeks after the second application, vs reference VHH and non-treated inoculated control (FIG. 17)) was “prominent and dose-related growth inhibition pattern”, the “activity compared with chemical reference Quadris Top SBX” value (Phakopsora pachyrhizi; 750 g ai/ha) was “on par” and the “percent severity (PESSEV) of Botrytis cinerea on grape bunches” value (Botrytis cinerea [2]) was “clear and dose-related performance”.
